Reference: patent publication US20030027338A1 (BROOKHAVEN SCIENCE ASSOCIATES, published 2003)

B3: his-tagged D1/D2 (refolded entire extracellular region of human CAR, IgV+IgC2 domains) (receptor)
chain: MGITTPEEMIEKAKGETAYLPCKFTLSPEDQGPLDIEWLISPADNQKVDQVIILYSGDKIYDDYYPDLKGRVHFTSNDLKSGDASINVTNLQLSDIGTYQCKVKKAPGVANKKIHLVVLVKPSGARCYVDGSEEIGSDFKIKCEPKEGSLPLQYEWQKLSDSQKMPTSWLAEMTSSVISVKNASSEYSGTYSCTVRNRVGSDQCLLRLNVVPPSNKAG
notes: range 20-237; also called CAR D1/D2; CARD1/D2; not shown: pET15b vector-encoded amino-terminal hexahistidine tag

Columns and labels:
[1] = target: B3; assay: Ni-NTA pull-down with his-tagged D1/D2, SDS-PAGE of bead eluate
[2] = target: T1, his-tagged Ad12 knob (wild type) (adenovirus serotype 12, UniProt P36711 401-587); assay: Ni-NTA column capture of his-tagged knob mixed with sD1, EDTA elution, SDS-PAGE
T1 construct: range 401-587; Cloned between the NdeI and BamHI sites of pET15b; tag left on; also called Purified, his-tagged Ad12 knob; wild-type his-tagged knob protein; not shown: pET15b vector-encoded N-terminal hexahistidine tag
T1 sequence: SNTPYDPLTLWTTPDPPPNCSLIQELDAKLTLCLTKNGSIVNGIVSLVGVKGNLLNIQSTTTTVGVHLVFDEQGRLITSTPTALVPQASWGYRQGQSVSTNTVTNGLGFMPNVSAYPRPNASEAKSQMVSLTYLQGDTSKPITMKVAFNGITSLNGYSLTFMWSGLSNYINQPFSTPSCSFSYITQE

[3] = target: T2, purified Ad2 hexon protein (adenovirus type 2, UniProt P03277 2-968); assay: Ni-NTA pull-down with his-tagged D1/D2, SDS-PAGE of bead eluate
T2 construct: Included as a specificity control in the pull-down

[4] = target: T2, purified Ad2 hexon protein; assay: Ni-NTA pull-down with his-tagged D1, SDS-PAGE of bead eluate
[5] = target: T3, Ad12 knob mutant P417E/P418A (his-tagged) (adenovirus serotype 12, UniProt P36711 401-587); assay: dot blot: his-tagged knob on nitrocellulose (5 µg per dot) probed with biotinylated CARD1, chemiluminescence; text: abrogated CARD1 binding
T3 construct: range 401-587; AB loop; also called double substitution P417E/P418A; not shown: pET15b vector-encoded N-terminal hexahistidine tag
T3 sequence: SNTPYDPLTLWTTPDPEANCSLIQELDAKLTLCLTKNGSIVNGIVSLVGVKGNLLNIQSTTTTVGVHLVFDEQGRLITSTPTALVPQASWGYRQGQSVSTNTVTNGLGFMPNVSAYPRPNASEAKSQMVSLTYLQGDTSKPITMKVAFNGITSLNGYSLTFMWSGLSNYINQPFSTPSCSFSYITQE

T2 sequence (P03277 2-968 limits assumed): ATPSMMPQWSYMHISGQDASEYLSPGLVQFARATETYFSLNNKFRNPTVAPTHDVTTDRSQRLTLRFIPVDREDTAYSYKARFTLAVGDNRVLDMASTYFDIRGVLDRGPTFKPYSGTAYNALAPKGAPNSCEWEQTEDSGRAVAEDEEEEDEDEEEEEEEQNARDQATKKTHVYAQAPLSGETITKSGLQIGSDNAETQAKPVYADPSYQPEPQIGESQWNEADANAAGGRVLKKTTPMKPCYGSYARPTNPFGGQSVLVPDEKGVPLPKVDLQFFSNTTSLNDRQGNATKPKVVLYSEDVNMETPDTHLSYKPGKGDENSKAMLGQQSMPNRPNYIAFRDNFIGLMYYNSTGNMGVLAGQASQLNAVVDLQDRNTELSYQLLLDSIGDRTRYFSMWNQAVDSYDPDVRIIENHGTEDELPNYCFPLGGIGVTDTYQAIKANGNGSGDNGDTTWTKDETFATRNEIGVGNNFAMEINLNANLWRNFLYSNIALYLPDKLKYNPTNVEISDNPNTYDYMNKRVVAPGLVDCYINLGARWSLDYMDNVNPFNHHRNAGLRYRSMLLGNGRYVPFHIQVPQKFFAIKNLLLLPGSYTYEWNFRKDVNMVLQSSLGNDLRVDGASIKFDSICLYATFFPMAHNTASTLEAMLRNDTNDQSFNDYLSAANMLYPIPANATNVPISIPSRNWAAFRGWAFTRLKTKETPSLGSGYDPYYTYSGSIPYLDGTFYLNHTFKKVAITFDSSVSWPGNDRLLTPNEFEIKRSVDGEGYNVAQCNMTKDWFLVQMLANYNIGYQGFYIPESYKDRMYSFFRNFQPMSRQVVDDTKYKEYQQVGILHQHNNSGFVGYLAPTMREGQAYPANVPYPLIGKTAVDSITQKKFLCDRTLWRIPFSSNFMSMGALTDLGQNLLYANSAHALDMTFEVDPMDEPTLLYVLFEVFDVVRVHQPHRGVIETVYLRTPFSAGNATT

B1: Ad12 knob (recombinant adenovirus type 12 fiber knob domain, his-tag removed by thrombin) (other)
chain: SNTPYDPLTLWTTPDPPPNCSLIQELDAKLTLCLTKNGSIVNGIVSLVGVKGNLLNIQSTTTTVGVHLVFDEQGRLITSTPTALVPQASWGYRQGQSVSTNTVTNGLGFMPNVSAYPRPNASEAKSQMVSLTYLQGDTSKPITMKVAFNGITSLNGYSLTFMWSGLSNYINQPFSTPSCSFSYITQE
notes: range 401-587; Expressed from pET15b in E. coli; The hexahistidine tag was cleaved with thrombin; Trimer by SDS-PAGE, STEM (60.6 kDa) and gel filtration; also called Ad12 fiber knob
B1: binds [1].

B2: sD1 (soluble D1 of human CAR with 22 amino acid carboxy-terminal extension) (receptor)
chain: MGITTPEEMIEKAKGETAYLPCKFTLSPEDQGPLDIEWLISPADNQKVDQVIILYSGDKIYDDYYPDLKGRVHFTSNDLKSGDASINVTNLQLSDIGTYQCKVKKAPGVANKKIHLVVLVKPSGALEDPAANKARKEAELAAATAEQ
notes: range 20-144; No hexahistidine tag; Used as a partially purified preparation; also called pET15b-sD1 product
B2: binds [2].

B3: no binding [3].

B4: his-tagged D1 (refolded amino-terminal IgV domain of human CAR) (receptor)
chain: MGITTPEEMIEKAKGETAYLPCKFTLSPEDQGPLDIEWLISPADNQKVDQVIILYSGDKIYDDYYPDLKGRVHFTSNDLKSGDASINVTNLQLSDIGTYQCKVKKAPGVANKKIHLVVLVKPSGA
notes: range 20-144; also called CAR D1; CARD1; not shown: pET15b vector-encoded amino-terminal hexahistidine tag
B4: no binding [4].

B5: biotinylated CARD1 protein (receptor)
chain: LSITTPEEMIEKAKGETAYLPCKFTLSPEDQGPLDIEWLISPADNQKVDQVIILYSGDKIYDDYYPDLKGRVHFTSNDLKSGDASINVTNLQLSDIGTYQCKVKKAPGVANKKIHLVVLVKPSGA
modifications: biotinylated with sulfo-NHS-LC biotin (sites not given)
notes: domain: D1
B5: no binding (tested: 5 µg/ml biotinylated CARD1) [5].
